# Laboratory results taken from patent US20130089548.
# Changes are numbered by the printed parent chain.
# Tests used:
# [1] = target: T1, CDO intracellular domain wild type (CDO-IC wt), in vitro-translated (UniProt Q32MD9)
# T1 sequence: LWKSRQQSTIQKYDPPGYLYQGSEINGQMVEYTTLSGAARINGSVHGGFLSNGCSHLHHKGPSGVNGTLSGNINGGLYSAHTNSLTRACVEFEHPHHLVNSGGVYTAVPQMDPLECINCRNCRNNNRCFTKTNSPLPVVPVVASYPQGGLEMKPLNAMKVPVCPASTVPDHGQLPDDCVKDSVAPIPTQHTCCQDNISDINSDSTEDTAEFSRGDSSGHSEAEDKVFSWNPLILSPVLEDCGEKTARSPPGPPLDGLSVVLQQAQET
# [2] = target: T2, CDO-IC with Asp1178 to Asn mutation (UniProt Q32MD9)
# T2 sequence: T1 sequence with D195N
# CDO-IC-D1153N = target: T3, CDO-IC-D1153N (UniProt Q32MD9)
# T3 sequence: T1 sequence with D170N
# CDO-IC-D1153N-D1164N = target: T4, CDO-IC-D1153N-D1164N (UniProt Q32MD9)
# T4 sequence: T1 sequence with D170N, D181N
substance,measurement,setting,value
Recombinant purified active caspase-3,"in vitro cleavage of in vitro-translated CDO-IC by purified active caspase-3 (autoradiograph, FIG. 5)",[1],"CDO intracellular domain (CDO-IC, amino acids 985 to 1250) was cleaved in vitro when incubated with purified active caspase-3"
same,"in vitro cleavage of in vitro-translated CDO-IC by purified active caspase-3 (autoradiograph, FIG. 5)",[2],the Asp^1178 to Asn mutation had no effect on CDO-IC cleavage
same,"in vitro cleavage of in vitro-translated CDO-IC by purified active caspase-3 (autoradiograph, FIG. 5)",CDO-IC-D1153N,mutation of Asp^1153 to Asn (CDO-IC D1153N) strongly inhibited cleavage by caspase-3
same,"in vitro cleavage of in vitro-translated CDO-IC by purified active caspase-3 (autoradiograph, FIG. 5)",CDO-IC-D1153N-D1164N,Asp^1153/Asp^1164 to Asn double mutation almost completely suppressed caspase-3 cleavage
